B1: HBsu (histone-like protein HU of B. subtilis), recombinant (natural protein)
chain: MNKTELINAVAEASELSKKDATKAVDSVFDTILDALKNGDKIQLIGFGNFEVRERSARKGRNPQTGEEIEIPASKVPAFKPGKALKDAVAGK
B3: Gp46 from bacteriophage SPO1 (natural protein)
chain: MMTEDQKFKYLTKIEELEAGCFSDWTKEDITGDLKYLKKGIIEESIELIRAVNGLTYSEELHDFTQEIIEELDISPL

Assays:
[1] = biological target: the molecule itself; experiment: SEC-MALS
[2] = biological target: T1, HBsu (HU of B. subtilis) (Bacillus subtilis, UniProt P08821 1-92); experiment: ITC
T1 sequence: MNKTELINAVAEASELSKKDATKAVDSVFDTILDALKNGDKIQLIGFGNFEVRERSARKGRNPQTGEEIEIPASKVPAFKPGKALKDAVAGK

[3] = biological target: B1; experiment: SPR
[4] = biological target: B1; experiment: ITC
[5] = biological target: HU of Acinetobacter baumannii (Acinetobacter baumannii); experiment: ITC
[6] = biological target: T2, HBsu^I71A (Bacillus subtilis, UniProt P08821 1-92, I71A); experiment: ITC
T2 sequence: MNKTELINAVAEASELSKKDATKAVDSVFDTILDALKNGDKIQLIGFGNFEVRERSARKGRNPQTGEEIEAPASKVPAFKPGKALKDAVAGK

[7] = biological target: T3, HBsu^R53N/R55N/R58N (Bacillus subtilis, UniProt P08821 1-92, R53N | R55N | R58N); experiment: ITC
T3 sequence: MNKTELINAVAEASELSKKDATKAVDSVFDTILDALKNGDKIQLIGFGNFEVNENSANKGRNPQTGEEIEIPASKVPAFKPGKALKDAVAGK

[8] = biological target: B3; experiment: ITC
[9] = biological target: B1; experiment: ITC; remark: listed apart in the source

**Q.** Does B1 bind [1]?
**A.** binds

B2: dsDNA (DNA1/DNA2) (dsDNA)
DNA 1: TGCTTATCAATTTGTTGCACC
DNA 2: GGTGCAACAAATTGATAAGCA
**Q.** With B2 as the binder, how does the Kd [2] read?
**A.** 359 ± 38 nM

**Q.** Which Kd [3] does the source give for B3 here?
**A.** 5870 ± 110 nM

**Q.** What about the Kd [4] of the same binder?
**A.** 277 ± 50 nM

**Q.** What about the Kd [5] of the same binder?
**A.** 300 nM

**Q.** What about the Kd [6] of the same binder?
**A.** 6410 ± 3540 nM

**Q.** Does B3 bind [7]?
**A.** binds

B4: HU of Plasmodium falciparum (natural protein)
chain: RRAFINVHKNNIINNKLSVNNPYNKNALYQSSSKIPMSQAITKKQIIEEVSMETKENKKTVEKIMNGIFDNIYKHLENNEKIYIHKFGMFYNIFRKKRCIKNLRTKEDIEIESSHMPHFKFSKVFKELIKQNVKVKKGKGVSTNDHDLDEDDMNMDNINESFKENVNEKLIY
**Q.** For B4, which Kd [8] is on record?
**A.** ~300 nM

B5: Gp46^D63N (natural protein)
chain: MMTEDQKFKYLTKIEELEAGCFSDWTKEDITGDLKYLKKGIIEESIELIRAVNGLTYSEELHNFTQEIIEELDISPL
**Q.** Does B5 bind [9]?
**A.** binds

— paper PMC8892312 (Proceedings of the National Academy of Sciences of the …, 2022)
